Substrate in this series: gfPET
Briefly: Proxy for plastic degradation [Relative activity]. The note with it: pH 8.

B1: unnamed (protein)
chain: MANPYERGPDPTESSIEAVRGPFAVAQTTVSRLQADGFGGGTIYYPTDTSQGTFGAVAISPGFTAGQESIAWLGPRIASQGFVVITIDTITRFDYPDSRGRQLQAALDHLRTNSVVRNRIDPNRMAVMGHSMGGGGALSAAANNTSLEAAIPLQGWHTRKNWSSVRTPTLVVGAQLDTIAPVSSHSEAFYNSLPSDLDKAYMELCGASHLVSNTPDTTTAKYSIAWLKRFVDDDLRYEQFLCPAPDDFAICEYRSTCPF
On to B1, for which the “Proxy for plastic degradation” value came to 70%.

B2: unnamed (protein)
chain: MANPYERGPDPTESSIEAVRGPFAVAQTTVSRLQADGFGGGTIYYPTDTSQGTFGAVAISPGFTAGQESIAWLGPRIASQGFVVITIDTITRLDQPDSRGRQLQAALDHLRTNSVVRNRIDPNRMAVMGHSMGGGGALSAAANNTSLEAAIPLQGWHTRKNWSSVRTPTLVVGAQLDTIAPVSSHSEAFYNSLPSDLDKAYMELRGASHEVSNTPDTTTAKYSIAWLKRFVDDDLRYEQFLCPAPDDFAISEYRSTCPF
Take B2: the “Proxy for plastic degradation” value is 6%.

B3: unnamed (protein)
chain: MANPYERGPDPTESSIEAVRGPFAVAQTTVSRLQADGFGGGTIYYPTDTSQGTFGAVAISPGFTAGQESIAWLGPRIASQGFVVITIDTITRLDQPDSRGRQLQAALDHLRTNSVVRNRIDPNRMAVMGHSMGGGGALSAAANNTSLEAAIPLQGWHTRKNWSSVRTPTLVVGAQLDTIAPVSSHSEAFYNSLPSDLDKAYMELRGASHRVSNTPDTTTAKYSIAWLKRFVDDDLRYEQFLCPAPDDFAISEYRSTCPF
As for B3, the “Proxy for plastic degradation” value stood at 95%.

B4: unnamed (protein)
chain: MANPYERGPDPTESSIEAVRGPFAVAQTTVSRLQADGFGGGTIYYPTDTSQGTFGAVAISPGFTAGQESIAWLGPRIASQGFVVITIDTITRLDQPDSRGRQLQAALDHLRTNSVVRNRIDPNRMAVMGHSMGGGGALSAAANNTSLEAAIPLQGWHTRKNWSSVRTPTLVVGAQLDTIAPVSSHSEAFYNSLPSDLDKAYMELRGASHVVSNTPDTTTAKYSIAWLKRFVDDDLRYEQFLCPAPDDFAISEYRSTCPF
On to B4, for which the “Proxy for plastic degradation” value is 61%.

B5: unnamed (protein)
chain: MANPYERGPDPTESSIEAVRGPFAVAQTTVSRLQADGFGGGTIYYPTDTSQGTFGAVAISPGFTAGQESIAWLGPRIASQGFVVITIDTITRLDQPDSRGRQLQAALDHLRTNSVVRNRIDPNRMAVMGHSMGGGGALSAAANNTSLEAAIPLQGWHTRKNWSSVRTPTLVVGAQLDTIAPVSSHSEAFYNSLPSDLDKAYMELRGASHTVSNTPDTTTAKYSIAWLKRFVDDDLRYEQFLCPAPDDFAISEYRSTCPF
As to B5, the “Proxy for plastic degradation” value is 48%.

B6: unnamed (protein)
chain: MANPYERGPDPTESSIEAVRGPFAVAQTTVSRLQADGFGGGTIYYPTDTSQGTFGAVAISPGFTAGQESIAWLGPRIASQGFVVITIDTITRLDQPDSRGRQLQAALDHLRTNSVVRNRIDPNRMAVMGHSMGGGGALSAAANNTSLEAAIPLQGWHTRKNWSSVRTPTLVVGAQLDTIAPVSSHSEAFYNSLPSDLDKAYMELRGASHQVSNTPDTTTAKYSIAWLKRFVDDDLRYEQFLCPAPDDFAISEYRSTCPF
As for B6, the “Proxy for plastic degradation” value is 94%.

B7: unnamed (protein)
chain: MANPYERGPDPTESSIEAVRGPFAVAQTTVSRLQADGFGGGTIYYPTDTSQGTFGAVAISPGATAGQESIAWLGPRIASQGFVVITIDTITRLDQPDSRGRQLQAALDHLRTNSVVRNRIDPNRMAVMGHSMGGGGALSAAANNTSLEAAIPLQGWHTRKNWSSVRTPTLVVGAQLDTIAPVSSHSEAFYNSLPSDLDKAYMELRGASHLVSNTPDTTTAKYSIAWLKRFVDDDLRYEQFLCPAPDDFAISEYRSTCPF
On to B7, for which the “Proxy for plastic degradation” value amounted to 22%.

B8: unnamed (protein)
chain: MANPYERGPDPTESSIEAVRGPFAVAQTTVSRLQADGFGGGTIYYPTDTSQGTFGAVAISPGFTAGQESIAWLGPRIASQGFVVITIDTITRLDQPDSRGRQLQAALDHLRTNSVVRNRIDPNRMAVMGHSMGGGGALSAAANNTSLEAAIPLQGWHTRKNWSSVRTPTLVVGAQLDTIAPVSSHSEAFYNSLPSDLDKAYMELRGASHFVSNTPDTTTAKYSIAWLKRFVDDDLRYEQFLCPAPDDFAISEYRSTCPF
Turning to B8, the “Proxy for plastic degradation” value was determined as 58%.

B9: unnamed (protein)
chain: MANPYERGPDPTESSIEAVRGPFAVAQTTVSRLQADGFGGGTIYYPTDTSQGTFGAVAISPGFTAGQESIAWLGPRIASQGFVVITIDTITRLDQPDSRGRQLQAALDHLRTNSVVRNRIDPNRMAVMGHSMGGGGALSAAANNTSLEAAIPLQGWHTRKNWSSVRTPTLVVGAQLDTIAPVSSHSEAFYNSLPSDLDKAYMELRGASHCVSNTPDTTTAKYSIAWLKRFVDDDLRYEQFLCPAPDDFAISEYRSTCPF
In the case of B9, the “Proxy for plastic degradation” value was found to be 8%.

The record behind these values is the PETadex activity labels (doi:10.1021/acscatal.2c02275).
